According to US20260053913A1 (BIOENTRE, published 2026):

T1: human CTLA4 (cytotoxic T-lymphocyte-associated antigen-4), isoform CTLA4-TM (human, UniProt P16410 36-223)
T1 sequence: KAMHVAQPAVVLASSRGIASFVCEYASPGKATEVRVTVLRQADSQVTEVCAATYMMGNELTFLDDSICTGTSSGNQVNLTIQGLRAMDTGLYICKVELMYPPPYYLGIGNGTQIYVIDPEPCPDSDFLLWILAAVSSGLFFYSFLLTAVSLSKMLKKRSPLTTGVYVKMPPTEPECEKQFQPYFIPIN


Columns and labels:
[1] = target: T1, human CTLA4 (cytotoxic …); test: cell-based or functional assay
[2] = target: human CTLA4 (cytotoxic T-lymphocyte-associated antigen-4), isoform CTLA4-TM (human) (UniProt P16410); test: cell-based or functional assay

| Binder | half maximum activity concentration, αCTLA 4 functional blockade assay [1] [nM] | maximal activity (ratio RLU), αCTLA 4 functional blockade assay [2] [ratio RLU] | plateau of the titration curve (ratio RLU over background) at 200 nM or greater [2] [ratio RLU] | biological activity relative to Ipilimumab, Promega anti-CTLA 4 and anti-CTLA 4 + anti-PD1 functional blockade assays [1] |
| --- | --- | --- | --- | --- |
| BioE2032 (121 HuIgG1) (antibody, V domains shown) VH: QVQLQESGPGLVKPSQTLSLTCTVSGFSLTSYGVYWVRQPPGKGLEWLGVIWAGGTTNYNSALMSRLTISKDTSKNQVSLKLSSVTAADTAVYYCARGPPHAMMKRGYAMDYWGQGTLVTVSS VL: DIQMTQSPSSLSASVGDRVTITCSATSSITYMSWYQQKPGKAPKLLIYDTSNLASGVPSRFSGSGSGTDYTLTISSLQPEDFATYYCQQWSSYPLTFGGGTKLEIK | ~50 | – | – | – |
| L3D10 (antibody, from another filing, V domains shown) VH: QVQLKESGPGLVAPSQSLSITCTVSGFSLTSYGLSWVRQPPGKGLEWLGVIWYDGNTNFHSALISRLTISKDNSKSQVFLELNSLQTDDTATYYCAKTEGHYYGSNYGYYALDYWGQGTSVTVSS VL: DIQMTQSPASLSVSVGETVTITCRASENIYSNLAWYQQKQGKSPQLLVYAATNLADGVPSRFSGSGSGTQYSLKINSLQSEDFGTYFCQHLWGTPYTFGGGTKLEIKR | – | 15 | 15 to 20 | – |
| BNI3, mouse IgG2a anti-human CTLA4 (CD152) antibody from BioXcell (antibody, V domains shown) VH: DVQLQESGPGLVKPSQSLSLTCSVTGYSITSGYVWNWIRQFPGNKLEWMGYISHDGNTNYNPSLKNRISITRDTSKNQFFLKLNSVTTEDSATYYCTRNYGYGGTMDYWGQGTAVSVSS VL: DIVMTQSQKFMSTSVGDRVSVTCKASQNVGTYVAWYEQKLGQSPKALIFSASYRYTGVPDRFTGSGSGTDFTLTISNVQSEDLAEYFCQQYDSYPLTFGGGTKLEIKR | ~50 | – | – | < 60 % of Ipilimumab activity |
